Data on four molecules can be found in patent US20210147523A1 (TEIJIN PHARMA, published 2021).

Positions count from the first letter of the chain named.

Sequences and labels used below:
T1: human SPNS2 R200A mutant (human, UniProt Q8IVW8 1-549)
T1 sequence: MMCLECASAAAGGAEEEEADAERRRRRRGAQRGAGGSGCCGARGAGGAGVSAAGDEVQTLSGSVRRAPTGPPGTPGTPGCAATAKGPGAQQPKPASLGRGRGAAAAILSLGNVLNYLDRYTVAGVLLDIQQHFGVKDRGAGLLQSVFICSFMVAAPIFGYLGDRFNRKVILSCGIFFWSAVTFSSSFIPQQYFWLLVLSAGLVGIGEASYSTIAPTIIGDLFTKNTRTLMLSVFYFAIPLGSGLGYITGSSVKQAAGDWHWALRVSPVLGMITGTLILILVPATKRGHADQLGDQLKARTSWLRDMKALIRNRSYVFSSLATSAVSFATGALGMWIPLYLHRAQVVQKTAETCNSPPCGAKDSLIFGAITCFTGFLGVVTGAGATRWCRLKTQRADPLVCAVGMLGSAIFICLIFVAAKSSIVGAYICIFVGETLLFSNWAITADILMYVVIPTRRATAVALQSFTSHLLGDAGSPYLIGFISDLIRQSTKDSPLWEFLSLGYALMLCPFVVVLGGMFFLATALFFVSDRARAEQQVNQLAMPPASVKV

T2: human SPNS2 W259A mutant (human, UniProt Q8IVW8 1-549)
T2 sequence: T1 sequence with A200R, W259A

T3: human SPNS2 K136A mutant (human, UniProt Q8IVW8 1-549)
T3 sequence: T1 sequence with K136A, A200R

T4: human SPNS2 (human, UniProt Q8IVW8 1-549)
T4 sequence: T1 sequence with A200R

T5: mouse SPNS2 (mouse, UniProt Q91VM4 1-549)
T5 sequence: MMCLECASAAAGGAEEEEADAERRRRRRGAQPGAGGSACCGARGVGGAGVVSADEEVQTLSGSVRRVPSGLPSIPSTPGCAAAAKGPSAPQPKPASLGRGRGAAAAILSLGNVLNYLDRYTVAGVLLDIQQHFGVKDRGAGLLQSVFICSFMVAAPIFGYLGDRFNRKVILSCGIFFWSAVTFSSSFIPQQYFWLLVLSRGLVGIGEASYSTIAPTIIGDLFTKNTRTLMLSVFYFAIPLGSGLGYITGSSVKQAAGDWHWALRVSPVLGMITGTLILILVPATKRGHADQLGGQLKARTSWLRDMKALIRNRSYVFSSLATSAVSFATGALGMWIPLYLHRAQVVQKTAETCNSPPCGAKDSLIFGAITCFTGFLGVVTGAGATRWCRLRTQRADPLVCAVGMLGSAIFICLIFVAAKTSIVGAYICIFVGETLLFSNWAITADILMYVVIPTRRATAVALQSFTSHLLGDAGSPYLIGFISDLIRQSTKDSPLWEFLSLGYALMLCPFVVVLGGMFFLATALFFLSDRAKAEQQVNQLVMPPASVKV

B1: 49-0703G (antibody, IgG2b, V domains shown)
VH: EVQLVESGGGLVQPGRSMKLSCAASGFTFSNHYMAWVRQAPTKGLEWVASISTGGGNTYYRDSVKGRFTISRDNAKSTLYLQMDSLRSEDTATYYCARQDYSNYMGGFAYWGQGTLVTVSS
VL: QFVLTQPNSVSTNLGSTVKLSCKRSTGNIGNNYVNWYQQYEGRSPTTMIYRDDERPDGVPDRFSGSIDRSSNSALLTINNVQTEDEADYFCQSFSNGMFIFAGGTQLTVL
B2: 65-0810G (antibody, IgG2b, V domains shown)
VH: EVHLVESGGGLVQPGRSMKLSCTASGFTFNNYYMAWVRQAPTKGLEWVASISTGGGYTYYRDSVKGRFTISRDNTGNTLYLQMDSLRSEDTATYYCARCWELPYWGQGVMVTVSS
VL: QFVLTQPNSVSTNLGSTVKLSCRRSSGNIGNNYVNWYRQHEGRSPTTMIYRDDTRPDGVPNRFSGSIDRSSNSALLTINNVRPEDEAYYFCQSYSGSIYIFGGGTKLTVL
B3: 33-0503E (antibody, IgG2b, V domains shown)
VH: EVQLVESGGGLVRPGGSMKLSCGASGFIFDNYYMTWVRQAPTKGLEWVASISSSGGNTYYRDSVRGRFTISRDNAGNTLSLQMGSLRAEDTATYHCAKEGYRGRYFDYWGQGVMVTVSS
VL: QVVLTQPNSVSTNLGSTVKLSCKRTTGNIGSNYVNWYQQHEGRSPTTMIYRDDERPDGVPDRFSGSIDRSSNSALLTINNVQTEDEAEYFCQSYSSGIIFGGGTKLTVL
B4: 64-0807A (antibody, IgG2b, V domains shown)
VH: EVQVVESGGGLVQPGRSMKLSCAALGFTFRDYYMAWVRQTPTKGLEWVAAISTGGGNTYYRDSVKGRFTISRDNAKSTLYLQMDSLRSDDTATYYCARNPYGNYFDYWGQGVMVTVSS
VL: QFVLSQPNSVSTNLGSTVKLSCKRSTGNIGSNYVHWYQRHEGRSPTTLIYRDDKRPNGVPDRFSGSIDRSSNSALLTINNVQTEDEADYFCQSYSGGMYLFGGGTKLTVL

For one assay, the target named is T1, human SPNS2 R200A mutant. In words: flow cytometry.
Regarding B1, the “binding ratio vs native type” value is less than 0.5 ratio.

Consider B2, for which the “binding ratio vs native type” value was less than 0.5 ratio.

B3: the “binding ratio vs native type” value is less than 0.5 ratio.

The target of the next assay is T2, human SPNS2 W259A mutant. In words: flow cytometry. (In general: A flow cytometer gives signals particle by particle.)
With B1, the “binding ratio vs native type” value was less than 0.5 ratio.

As to B2, the “binding ratio vs native type” value is less than 0.5 ratio.

With B4, the “binding ratio vs native type” value is less than 0.5 ratio.

Regarding B3, the “binding ratio vs native type” value was less than 0.5 ratio.

In another assay the target is T3, human SPNS2 K136A mutant. In words: flow cytometry.
With B1, the “binding ratio vs native type” value is less than 0.5 ratio.

For the molecule B2, the “binding ratio vs native type” value is less than 0.5 ratio.

On to B4, for which the “binding ratio vs native type” value was less than 0.5 ratio.

With B3, the “binding ratio vs native type” value is less than 0.5 ratio.

The target of another assay is T4, human SPNS2. In words: cell-based or functional assay.
Consider B1, for which the “pIC50, S1P transport inhibition (S1PR3 Ca2+ FLIPR bioassay)” value is 7 pIC50 (M).

With B2, the “pIC50, S1P transport inhibition (S1PR3 Ca2+ FLIPR bioassay)” value is 7.2 pIC50 (M).

Consider B4, for which the “pIC50, S1P transport inhibition (S1PR3 Ca2+ FLIPR bioassay)” value is 7.4 pIC50 (M).

For the molecule B3, the “pIC50, S1P transport inhibition (S1PR3 Ca2+ FLIPR bioassay)” value is 7 pIC50 (M).

The target in the next assay is T4, human SPNS2. Briefly: cell-based or functional assay. This is another data set of the same source.
In the case of B1, the “pIC50, S1P transport inhibition (LC-MS/MS of S1P)” value is 7.4 pIC50 (M).

Regarding B2, the “pIC50, S1P transport inhibition (LC-MS/MS of S1P)” value was 7.4 pIC50 (M).

As for B4, the “pIC50, S1P transport inhibition (LC-MS/MS of S1P)” value is 7.5 pIC50 (M).

As for B3, the “pIC50, S1P transport inhibition (LC-MS/MS of S1P)” value is 7.4 pIC50 (M).

The next assay concerns the target T5, mouse SPNS2. Briefly: cell-based or functional assay.
Regarding B1, the “pIC50, S1P transport inhibition (LC-MS/MS of S1P)” value was 7.6 pIC50 (M).

With B2, the “pIC50, S1P transport inhibition (LC-MS/MS of S1P)” value was 7.8 pIC50 (M).

As for B4, the “pIC50, S1P transport inhibition (LC-MS/MS of S1P)” value is 7.7 pIC50 (M).

With B3, the “pIC50, S1P transport inhibition (LC-MS/MS of S1P)” value is 7.7 pIC50 (M).
